Paper PMC7696055 (Pharmaceutics, 2020)

Experiments:
A431/CCKBR tumors = conditions: mouse, in vivo, iv
Text: The image reconstruction and processing was accomplished by using VivoQuant 3.0 Patch1 software.

[1] = cited from earlier work
Text: The radiolabeled PP-F11N is a small molecular weight peptide (2.032 kDa), which can be reabsorbed in the proximal tu ...

**Q.** With `CCCC[C@H](NC(=O)[C@H](Cc1c[nH]c2ccccc12)NC(=O)CNC(=O)[C@H](Cc1ccc(O)cc1)NC(=O)[C@H](C)NC(=O)[C@@H](CCC(=O)O)NC(=O)[C@@H](CCC(=O)O)NC(=O)[C@@H](CCC(=O)O)NC(=O)[C@@H](CCC(=O)O)NC(=O)[C@@H](CCC(=O)O)NC(=O)[C@@H](CCC(=O)O)NC(=O)CN1CCN(CC(=O)O)CCN(CC(=O)O)CCN(CC(=O)O)CC1)C(=O)N[C@@H](CC(=O)O)C(=O)N[C@@H](Cc1ccccc1)C(N)=O` [[^111In]In-PP-F11N, metal not drawn] as the compound, how does the “location of radioactive signals in SPECT/CT” value (A431/CCKBR tumors) read?
**A.** only detected in the excretion organs including kidneys and bladder

**Q.** Which results are given for `CCCC[C@H](NC(=O)[C@H](Cc1c[nH]c2ccccc12)NC(=O)CNC(=O)[C@H](Cc1ccc(O)cc1)NC(=O)[C@H](C)NC(=O)[C@@H](CCC(=O)O)NC(=O)[C@@H](CCC(=O)O)NC(=O)[C@@H](CCC(=O)O)NC(=O)[C@@H](CCC(=O)O)NC(=O)[C@@H](CCC(=O)O)NC(=O)[C@@H](CCC(=O)O)NC(=O)CN1CCN(CC(=O)O)CCN(CC(=O)O)CCN(CC(=O)O)CC1)C(=O)N[C@@H](CC(=O)O)C(=O)N[C@@H](Cc1ccccc1)C(N)=O` [[^177Lu]Lu-PP-F11N, metal not drawn]?
**A.** radiation dose received by stomach (median) ([1]; MTC patients, highest organ dose): 0.42 Gy/GBq; kidney radiation dose ([1]; six MTC patients): relatively low kidney radiation dose
